Consider four molecules from paper PMC8809517, “Cofactor-independent RNA editing by a synthetic S-type PPR protein”.

Assay in all cases: high-throughput RNA pulldown from lysate on Ni-NTA beads; HRP: 50 mM Tris pH 8, 150 mM NaCl, 1 mM beta-mercaptoethanol, 50 ug/ml BSA, 3 ug/ml yeast RNA, 0.5% heparin; ITC and FP: Tris pH 8, 200 mM KCl, 5% glycerol; MST: 50 mM Tris pH 8, 200 mM NaCl, 1 mM DTT, BSA, heparin, 0.05% Tween 20
What all share (conditions): tags: N-terminal His-eGFP

Data set [1] deals with T1, GFP-9S library array, motif 4 ND N98T;D124C (synthetic construct, N98T;D124C).
T1 chain: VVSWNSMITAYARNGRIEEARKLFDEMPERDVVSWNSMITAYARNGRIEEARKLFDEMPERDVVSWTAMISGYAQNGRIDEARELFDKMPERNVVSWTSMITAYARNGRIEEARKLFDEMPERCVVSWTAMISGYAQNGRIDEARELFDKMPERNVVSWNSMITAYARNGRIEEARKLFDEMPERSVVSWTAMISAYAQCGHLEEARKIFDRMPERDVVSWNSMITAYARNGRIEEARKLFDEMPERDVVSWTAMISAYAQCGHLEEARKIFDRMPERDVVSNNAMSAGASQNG

The target of data set [2] is T2, GFP-9S library array, motif 4 ND N98I;D124W (synthetic construct, N98I;D124W).
T2 chain: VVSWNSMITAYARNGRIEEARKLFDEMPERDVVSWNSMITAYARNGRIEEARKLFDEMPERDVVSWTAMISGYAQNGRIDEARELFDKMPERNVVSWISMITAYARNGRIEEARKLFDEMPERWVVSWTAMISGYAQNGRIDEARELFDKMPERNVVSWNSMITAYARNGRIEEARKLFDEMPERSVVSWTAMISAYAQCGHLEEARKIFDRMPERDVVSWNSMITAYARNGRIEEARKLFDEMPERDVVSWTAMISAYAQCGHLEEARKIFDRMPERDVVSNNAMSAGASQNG

The target of data set [3] is T3, GFP-9S library array, motif 4 ND D124M (synthetic construct, D124M).
T3 chain: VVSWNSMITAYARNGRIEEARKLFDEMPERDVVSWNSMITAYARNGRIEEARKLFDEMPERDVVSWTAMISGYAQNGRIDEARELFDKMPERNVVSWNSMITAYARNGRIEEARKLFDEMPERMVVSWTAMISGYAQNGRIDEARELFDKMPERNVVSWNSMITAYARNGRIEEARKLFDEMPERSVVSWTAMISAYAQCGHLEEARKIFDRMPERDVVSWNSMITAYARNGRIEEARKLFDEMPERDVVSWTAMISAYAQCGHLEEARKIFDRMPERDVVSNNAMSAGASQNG

Data set [4] deals with T4, GFP-9S library array, motif 4 ND N98G (synthetic construct, N98G).
T4 chain: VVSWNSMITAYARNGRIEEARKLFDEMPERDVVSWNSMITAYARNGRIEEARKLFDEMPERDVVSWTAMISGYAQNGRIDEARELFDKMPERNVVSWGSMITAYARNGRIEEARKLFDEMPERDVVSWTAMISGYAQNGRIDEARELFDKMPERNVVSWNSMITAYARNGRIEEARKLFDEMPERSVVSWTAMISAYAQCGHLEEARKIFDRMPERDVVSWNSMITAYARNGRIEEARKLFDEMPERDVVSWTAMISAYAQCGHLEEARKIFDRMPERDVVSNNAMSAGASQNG

For data set [5], the target named is T5, GFP-9S library array, motif 4 ND N98R;D124G (synthetic construct, N98R;D124G).
T5 chain: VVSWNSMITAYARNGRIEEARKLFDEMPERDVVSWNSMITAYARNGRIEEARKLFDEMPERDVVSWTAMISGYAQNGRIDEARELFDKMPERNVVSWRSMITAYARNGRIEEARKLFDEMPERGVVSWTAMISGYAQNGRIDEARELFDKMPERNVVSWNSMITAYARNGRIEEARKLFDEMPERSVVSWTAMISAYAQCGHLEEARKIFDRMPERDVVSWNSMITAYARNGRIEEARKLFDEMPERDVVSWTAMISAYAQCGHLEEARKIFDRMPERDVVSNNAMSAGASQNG

B1: Cy5-rpoA (ssRNA)
RNA: AUUACACGUGA
For B1, the dissociation constant (Kd) in data set [1] (label: 5' Cy5) came to 330 nM; in data set [2] (label: 5' Cy5), 74.5 nM; in data set [3] (label: 5' Cy5) it was 71.1 nM; in data set [4] (label: 5' Cy5), 402 nM; in data set [5] (label: 5' Cy5), 74.7 nM.

B2: IR-rpoA-A (ssRNA)
RNA: AUUAAACGUGA
B2: the Kd in data set [1] (label: 5' IRDye 800CW) stood at 88.6 nM; in data set [2] (label: 5' IRDye 800CW), 252 nM; in data set [3] (label: 5' IRDye 800CW), 78.1 nM; in data set [4] (label: 5' IRDye 800CW), 495 nM; in data set [5] (label: 5' IRDye 800CW), 191 nM.

B3: IR-rpoA-U (ssRNA)
RNA: AUUAUACGUGA
As to B3, the Kd turned out to be 119 nM in data set [1] (label: 5' IRDye 800CW); 136 nM in data set [2] (label: 5' IRDye 800CW); 21.2 nM in data set [3] (label: 5' IRDye 800CW); 408 nM in data set [4] (label: 5' IRDye 800CW); 97.3 nM in data set [5] (label: 5' IRDye 800CW).

B4: Cy5-rpoA-G (ssRNA)
RNA: AUUAGACGUGA
Take B4: the Kd in data set [1] (label: 5' Cy5) is 8.1 nM; in data set [2] (label: 5' Cy5), 98.3 nM; in data set [3] (label: 5' Cy5), 139 nM; in data set [4] (label: 5' Cy5), 32.5 nM; in data set [5] (label: 5' Cy5) it was 102 nM.
